What was measured:
[1] = substrate: C/C(=N\C#N)N(C)Cc1ccc(Cl)nc1; assay: LC-MS/MS of metabolites, microsomes with recombinant P450/CPR, Michaelis-Menten fit; assay type: biochemical, Bombus terrestris; conditions: NADPH regeneration system, 30 °C, 1 h, substrate 3.1-200 μM, house fly CPR co-expressed
[2] = substrate: N#C/N=C1\SCCN1Cc1ccc(Cl)nc1; assay: as above; assay type: biochemical, Bombus terrestris; conditions: NADPH regeneration system, 30 °C, 1 h, substrate 3.1-200 μM, house fly CPR co-expressed

B1: CYP9Q6 (Bombus terrestris audax) (protein)
chain: MEYLSLGLFLIAILIAIYYCATKNHNLFKKHGILHIPPMPLFGNMGSFFAKRSTLQDTILEAYELHPEAKYVGIYESLTPIIVLRDLDLIKSVNMKNFDHFTDHRNFVFKDMDPIFAGMLFSMKGEQWKEQRSILSLAFTSNKVKDMFNLMSECATRYANYLSNLAENEREMEMRDLLTKYTNDVIATCVYGVSVDTIKNPKNVFYTYGKSTTFTSFKKDMAMLAQRNLPWLAKLFQLRFLEKHIAKFFTEQVINTIEERKQNGTYRSDILQLFIDVNDKKVPGKGMSTENMVNHAFSLFFGGTDSVATQTSFLFYLLAENPEILKRLQEEIDETLENNNGQLTYDAIQKMKYLDAMINEAMRLQPITVFLDRLCVKDFELPPALPGEKPFTVKAGMNIWIPVDAIHHDPKHYENPQKFDPDRFLENGKKIINSGAFMPFGLGPRICIGNRFALTEIKVLLCHILAKCNVKIGSKMLLPLQYEEGVITAYAKNGFWLNVEPREHSYCTSQTNGTTKHLSNGNCRN
notes: with NADPH--cytochrome P450 reductase (Musca domestica, house fly)
With B1 the Km [1] was 27.32 µM and the Km [2] was 15.83 µM.

— paper PMC6675907, “Identification and functional characterisation of a novel N-cyanoamidine neonicotinoid metabolising cytochrome P450, CYP9Q6, from the buff-tailed bumblebee Bombus terrestris” (Insect Biochemistry and Molecular Biology, 2019)
